According to patent publication US20240059794A1 (PARASOL BIOTECH, published 2024):
Changes are numbered by the printed parent chain.

B1: C12 (VHH)
VHH: QVQLVESGGGLVQPGGSLRLSCAASSNIFRAYGMDWYRQAPGKQREMVATIWLSGRSTYTDAVKGRFTISRDNAKNTVYLQMNNLKPEDTAVYYCNAGPTTASSVRQYWGQGTQVTVSS
notes: Alpaca VHH tested as culture supernatant of IPTG-induced HB2151 bacteria (pComb3XSS phagemid); also called clone C12
B2: C21 (VHH)
VHH: QVQLVESGGGLVQPGGSLRLSCTSSSNIFRIYGMDWYRQAPGKQREIVATIYLSGRTTYSDAVKGRFTISRDNAKDTVYLQMNSLKPEDTAVYYCNAGEPTASSVRQYWGQGTQVTVSS
notes: Alpaca VHH tested as culture supernatant of IPTG-induced HB2151 bacteria (pComb3XSS phagemid); also called clone C21
B3: C13 (VHH)
VHH: B1 VHH with S57T, N84S, P99A, T100P, V105G
notes: Alpaca VHH tested as culture supernatant of IPTG-induced HB2151 bacteria (pComb3XSS phagemid); also called clone C13
B4: C15 (VHH)
VHH: B1 VHH with L11V, K64Q
notes: Alpaca VHH tested as culture supernatant of IPTG-induced HB2151 bacteria (pComb3XSS phagemid); also called clone C15
B5: C27 (VHH)
VHH: B2 VHH with Q1E, R30K, D76N, S84T, P100T
notes: Alpaca VHH tested as culture supernatant of IPTG-induced HB2151 bacteria (pComb3XSS phagemid); also called clone C27
B6: C08 (VHH)
VHH: EVQLVESGGGLVQPGGSLRLSCAASSNIFRAYGMGWYRQAPGKQREMVAAIWLSGRTEYADAVQGRFTVSRDNAKNTVYLQMNSLKPEDTAVYYCNAGPPTATSVRQYWGQGTQVTVSS
notes: Alpaca VHH tested as culture supernatant of IPTG-induced HB2151 bacteria (pComb3XSS phagemid); also called C8; clone C08
B7: C30 (VHH)
VHH: QVQLVESGGGLVQPGGSLRLSCAASGSIFRVYGMDWYRQAPGKQRELVASIFLSGRTNYADAVKGRFTLSRDNAKNTMYLQMNSLKPEDTAVYYCNAGETTASSVRQYWGQGTQVTVSS
notes: Alpaca VHH tested as culture supernatant of IPTG-induced HB2151 bacteria (pComb3XSS phagemid); also called clone C30
B8: C31 (VHH)
VHH: B7 VHH with Q1A, F52W, V117I
notes: Alpaca VHH tested as culture supernatant of IPTG-induced HB2151 bacteria (pComb3XSS phagemid); also called clone C31

Molecular target: T1, GUCY2C protein (Ser24-Gln430) (Homo sapiens (Human), UniProt P25092 24-430)
T1 construct: Synthesized by GenScript and used as the immunogen; No tags are stated; also called extracellular region of the artificially synthesized GUCY2C protein; Protein GUCY2C
T1 sequence (P25092 24-430): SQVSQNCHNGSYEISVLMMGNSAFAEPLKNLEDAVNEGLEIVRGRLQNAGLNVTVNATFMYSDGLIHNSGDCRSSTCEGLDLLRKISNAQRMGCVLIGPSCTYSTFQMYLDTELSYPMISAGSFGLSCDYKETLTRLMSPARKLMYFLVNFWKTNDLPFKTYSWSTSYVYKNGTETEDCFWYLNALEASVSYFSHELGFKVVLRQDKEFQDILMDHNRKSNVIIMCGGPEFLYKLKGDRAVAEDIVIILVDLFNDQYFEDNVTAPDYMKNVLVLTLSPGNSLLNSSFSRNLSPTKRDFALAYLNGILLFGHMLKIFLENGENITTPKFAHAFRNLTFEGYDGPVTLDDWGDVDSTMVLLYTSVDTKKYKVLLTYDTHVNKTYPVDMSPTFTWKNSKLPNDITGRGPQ
Assay: Screening ELISA: culture supernatant of the IPTG-induced HB2151 clone on a plate coated with 1 ug/ml GUCY2C; detection with peroxidase goat anti-alpaca IgG (VHH domain), TMB, absorbance at 450 nm; VHH concentration not given; negative control (NC) bar in the same chart is labelled 0.15
Procedure: The phages of 3 rounds screening were transfected into HB2151 bacteria, and 100 ul of infected HB2151 bacteria were taken to scrape on the surface of 2×YT-AG solid culture dish. 96 single clones were picked and added into 2×YT medium, then cultured in a 96 deep-well plate. 0.8 mM IPTG was added into the medium when the bacteria grew to logarithmic phase and were cultured overnight at 25° C. The supernatant of medium was added to the 1 ug/ml GUCY2C coated ELISA plate which was contained in two control wells. After incubating for 2 hours at 37° C., the plate was washed 3 times with PBST. Peroxidase AffiniPure Goat anti-Alpaca IgG, VHH domain (Jackson Immumo Research) was added into the Elisa plate, incubated at 37° C. for 1 hour and washed 3 times with PBST. TMB solution was added for 20 minutes, then the reaction was stopped with 2M sulfuric acid. The absorbance value at 450 nm wavelength was read on the microplate reader (FIG. 2). Clones with an absorbance value 2.1 times higher than the negative control were considered positive clones and were sent to sequencing.

Binder | OD450
B1 | 2
B2 | 0.42
B3 | 0.8
B4 | 1
B5 | 1.47
B6 | 0.86
B7 | 0.93
B8 | 0.45
